Data reported in publication PMC4824073, “Ribonucleoprotein particles of bacterial small non-coding RNA IsrA (IS61 or McaS) and its interaction with RNA polymerase core may link transcription to mRNA fate”.

Tests used:
[1] = biological target: RNAP (core or holo not stated) (UniProt P0A7Z4;P0A8V2;P0A8T7 1-329;1-1342;1-1407); assay: competition; unlabeled IsrA 15-fold excess vs labeled IsrA; yeast RNA, heparin after; EMSA (Figs 3B, 4): 1x buffer 15 mM Tris-HCl pH 8, 100 mM KCl, 1 mM MgCl2, 1 mM DTT, 1 ug yeast RNA, 37 C 10-20 min, then heparin on ice; Fig 3A as in ref 29 without yeast RNA; pull-down: 10 mM Tris-HCl pH 7.8, 200 mM KCl, 1 mM MgCl2, 5% glycerol, 1 mM DTT, 4 C, heparin 100 ug/ml wash; settings: protein: native; chain copies: 2;1;1; label: 32P; three stem-loops
RNAP core enzyme;sigma70 = RNAP core enzyme;sigma70 (Escherichia coli?;Escherichia coli?, UniProt P0A7Z4;P0A8V2;P0A8T7;P00579 1-329;1-1342;1-1407;1-613, |); assay: EMSA; heparin added after complex formation (heparin-resistant); EMSA (Figs 3B, 4): 1x buffer 15 mM Tris-HCl pH 8, 100 mM KCl, 1 mM MgCl2, 1 mM DTT, 1 ug yeast RNA, 37 C 10-20 min, then heparin on ice; Fig 3A as in ref 29 without yeast RNA; pull-down: 10 mM Tris-HCl pH 7.8, 200 mM KCl, 1 mM MgCl2, 5% glycerol, 1 mM DTT, 4 C, heparin 100 ug/ml wash; settings: protein: native;recombinant; tags: ;; chain copies: 2;1;1;1; label: 32P; three stem-loops
RNAP core enzyme = RNAP core enzyme (UniProt P0A7Z4;P0A8V2;P0A8T7 1-329;1-1342;1-1407); assay: as above; settings: protein: native; chain copies: 2;1;1; label: 32P; three stem-loops

Measured: binding result

RNAP core enzyme;sigma70, sequence (P0A7Z4 whole entry, chain 1 of 4): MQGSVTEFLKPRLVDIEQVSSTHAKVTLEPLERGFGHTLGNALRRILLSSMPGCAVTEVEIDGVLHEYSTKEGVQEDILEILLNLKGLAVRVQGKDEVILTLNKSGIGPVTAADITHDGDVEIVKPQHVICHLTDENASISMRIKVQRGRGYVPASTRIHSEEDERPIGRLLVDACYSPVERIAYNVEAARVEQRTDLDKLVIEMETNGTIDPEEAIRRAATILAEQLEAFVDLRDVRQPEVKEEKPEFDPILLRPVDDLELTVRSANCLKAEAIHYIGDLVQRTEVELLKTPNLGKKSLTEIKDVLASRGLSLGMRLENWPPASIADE
RNAP core enzyme;sigma70, sequence (P0A8V2 whole entry, chain 2 of 4): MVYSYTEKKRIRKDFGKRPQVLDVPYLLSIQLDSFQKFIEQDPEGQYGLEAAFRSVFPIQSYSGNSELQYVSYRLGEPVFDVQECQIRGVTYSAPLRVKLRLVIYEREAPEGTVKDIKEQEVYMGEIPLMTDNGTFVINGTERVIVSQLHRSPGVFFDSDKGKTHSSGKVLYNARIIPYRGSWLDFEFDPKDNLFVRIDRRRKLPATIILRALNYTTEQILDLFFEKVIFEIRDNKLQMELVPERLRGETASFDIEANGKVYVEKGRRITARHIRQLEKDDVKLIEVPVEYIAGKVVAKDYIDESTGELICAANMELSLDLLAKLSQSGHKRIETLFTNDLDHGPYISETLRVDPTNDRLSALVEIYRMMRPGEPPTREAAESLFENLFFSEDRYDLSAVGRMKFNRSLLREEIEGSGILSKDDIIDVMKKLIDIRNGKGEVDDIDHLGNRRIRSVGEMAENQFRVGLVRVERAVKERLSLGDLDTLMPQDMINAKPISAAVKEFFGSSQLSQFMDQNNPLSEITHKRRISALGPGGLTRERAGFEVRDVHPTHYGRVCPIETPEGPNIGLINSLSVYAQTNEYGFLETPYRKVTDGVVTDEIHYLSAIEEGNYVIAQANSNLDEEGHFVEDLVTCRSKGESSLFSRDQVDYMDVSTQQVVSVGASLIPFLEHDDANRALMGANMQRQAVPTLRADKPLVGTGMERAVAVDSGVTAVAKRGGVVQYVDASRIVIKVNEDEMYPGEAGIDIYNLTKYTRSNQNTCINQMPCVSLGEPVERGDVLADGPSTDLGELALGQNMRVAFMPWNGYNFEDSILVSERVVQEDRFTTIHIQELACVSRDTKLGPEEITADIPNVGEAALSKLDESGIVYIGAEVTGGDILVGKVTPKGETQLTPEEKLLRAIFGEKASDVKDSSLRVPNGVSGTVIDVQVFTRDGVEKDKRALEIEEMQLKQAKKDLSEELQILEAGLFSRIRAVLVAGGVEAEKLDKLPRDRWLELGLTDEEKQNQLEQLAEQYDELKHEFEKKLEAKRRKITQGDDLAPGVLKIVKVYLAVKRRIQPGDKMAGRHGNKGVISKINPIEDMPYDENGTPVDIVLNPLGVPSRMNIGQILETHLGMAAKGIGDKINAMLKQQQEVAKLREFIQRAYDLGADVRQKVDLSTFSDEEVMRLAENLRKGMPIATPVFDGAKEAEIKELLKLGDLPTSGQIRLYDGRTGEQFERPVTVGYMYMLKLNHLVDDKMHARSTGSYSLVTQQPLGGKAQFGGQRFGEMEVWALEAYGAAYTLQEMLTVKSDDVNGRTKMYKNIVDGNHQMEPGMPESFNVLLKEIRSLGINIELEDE
RNAP core enzyme;sigma70, sequence (P0A8T7 whole entry, chain 3 of 4): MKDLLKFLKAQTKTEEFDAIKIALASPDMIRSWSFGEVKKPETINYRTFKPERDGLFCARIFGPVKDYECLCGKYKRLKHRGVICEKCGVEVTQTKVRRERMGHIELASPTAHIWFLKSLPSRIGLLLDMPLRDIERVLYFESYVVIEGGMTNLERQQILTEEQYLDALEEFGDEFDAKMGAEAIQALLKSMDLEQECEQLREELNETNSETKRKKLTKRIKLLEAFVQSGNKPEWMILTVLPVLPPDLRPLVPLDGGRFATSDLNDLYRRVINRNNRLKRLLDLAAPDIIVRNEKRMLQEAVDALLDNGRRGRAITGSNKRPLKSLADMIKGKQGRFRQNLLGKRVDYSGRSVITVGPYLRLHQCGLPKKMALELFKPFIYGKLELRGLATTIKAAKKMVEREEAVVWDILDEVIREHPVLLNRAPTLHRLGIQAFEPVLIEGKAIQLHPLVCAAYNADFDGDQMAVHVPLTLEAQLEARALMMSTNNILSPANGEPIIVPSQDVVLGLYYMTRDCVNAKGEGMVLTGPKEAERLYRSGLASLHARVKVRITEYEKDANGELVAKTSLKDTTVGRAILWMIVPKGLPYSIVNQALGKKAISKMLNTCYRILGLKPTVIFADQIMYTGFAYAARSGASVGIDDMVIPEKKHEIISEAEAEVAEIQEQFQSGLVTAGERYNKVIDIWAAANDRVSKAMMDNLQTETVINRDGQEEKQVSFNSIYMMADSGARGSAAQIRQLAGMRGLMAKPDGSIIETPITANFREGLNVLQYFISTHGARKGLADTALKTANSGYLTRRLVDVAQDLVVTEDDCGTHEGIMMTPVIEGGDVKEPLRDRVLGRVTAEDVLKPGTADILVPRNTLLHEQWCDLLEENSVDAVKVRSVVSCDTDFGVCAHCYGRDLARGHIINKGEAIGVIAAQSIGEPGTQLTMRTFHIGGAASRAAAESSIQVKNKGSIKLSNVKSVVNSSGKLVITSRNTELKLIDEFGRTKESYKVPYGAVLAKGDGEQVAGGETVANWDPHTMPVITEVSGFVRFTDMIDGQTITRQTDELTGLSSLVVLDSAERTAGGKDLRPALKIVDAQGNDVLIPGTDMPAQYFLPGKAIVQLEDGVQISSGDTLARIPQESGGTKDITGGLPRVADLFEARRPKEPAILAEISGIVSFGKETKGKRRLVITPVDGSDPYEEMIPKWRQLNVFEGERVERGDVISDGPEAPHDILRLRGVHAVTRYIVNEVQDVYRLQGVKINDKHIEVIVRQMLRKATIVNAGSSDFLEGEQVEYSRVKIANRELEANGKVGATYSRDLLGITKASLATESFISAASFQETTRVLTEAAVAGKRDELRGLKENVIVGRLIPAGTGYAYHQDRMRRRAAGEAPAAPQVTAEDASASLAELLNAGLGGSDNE
RNAP core enzyme;sigma70, sequence (P00579 whole entry, chain 4 of 4): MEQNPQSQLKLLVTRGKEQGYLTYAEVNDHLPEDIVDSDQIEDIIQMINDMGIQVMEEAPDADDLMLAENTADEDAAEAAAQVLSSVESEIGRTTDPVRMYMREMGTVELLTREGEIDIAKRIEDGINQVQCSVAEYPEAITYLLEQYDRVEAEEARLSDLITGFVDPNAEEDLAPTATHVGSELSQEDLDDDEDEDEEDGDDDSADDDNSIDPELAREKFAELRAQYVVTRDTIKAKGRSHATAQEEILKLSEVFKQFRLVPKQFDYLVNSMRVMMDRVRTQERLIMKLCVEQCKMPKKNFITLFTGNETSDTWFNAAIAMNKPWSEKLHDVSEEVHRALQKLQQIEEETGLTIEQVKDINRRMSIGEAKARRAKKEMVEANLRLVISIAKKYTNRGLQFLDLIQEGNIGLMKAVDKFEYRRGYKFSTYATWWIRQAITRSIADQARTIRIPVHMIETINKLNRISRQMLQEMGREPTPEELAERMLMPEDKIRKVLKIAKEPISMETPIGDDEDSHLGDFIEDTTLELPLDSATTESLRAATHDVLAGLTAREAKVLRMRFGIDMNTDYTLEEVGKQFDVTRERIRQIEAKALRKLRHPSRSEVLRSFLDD

B1: IsrA (IS61, McaS) (structured_RNA)
RNA: ACCGGCGCAGAGGAGACAAUGCCGGAUUUAAGACGCGGAUGCACUGCUGUGUGUACUGUAGAGUCUGGCGGAUGUCGACAGACUCUAUUUUUUU
binds: all assays above
